# Reference: patent US20120014950A1, “Antibodies That Specifically Bind to DR3” (Xencor, Inc., priority 2010, published 2012)
# Where a chain is given by its changes, count along the chain named. Entries after “also recorded” stand apart in the source; their conditions may differ.
# T1: human DR3 (Homo sapiens, UniProt Q93038)
# T1 sequence (Q93038 25-417): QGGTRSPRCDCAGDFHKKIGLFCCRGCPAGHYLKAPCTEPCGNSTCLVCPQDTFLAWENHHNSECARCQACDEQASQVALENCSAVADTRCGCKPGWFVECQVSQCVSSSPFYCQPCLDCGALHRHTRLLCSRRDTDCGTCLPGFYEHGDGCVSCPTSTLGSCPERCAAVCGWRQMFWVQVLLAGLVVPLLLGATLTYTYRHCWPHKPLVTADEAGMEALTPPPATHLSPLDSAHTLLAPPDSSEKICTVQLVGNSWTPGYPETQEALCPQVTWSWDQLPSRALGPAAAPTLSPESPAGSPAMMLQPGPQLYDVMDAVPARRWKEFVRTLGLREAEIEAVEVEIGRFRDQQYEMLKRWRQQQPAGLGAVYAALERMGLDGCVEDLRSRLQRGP
# B1: H5L2-Fab: humanized anti-DR3 Fab, VH H5 (SEQ ID NO:17), VL L2 (SEQ ID NO:22, Leu at Kabat 104) (antibody, V domains shown)
# VH: EVQLLQSGAEVKKPGASVKVSCKASGFTFTNYAMSWVRQAPGQRLEWVATITSGGSYIYYLDSVKGRFTISRDNAKSTLHLQMNSLRAEDTAVYNCARRKDGNYYYAMDYWGQGTTVTVSS
# VL: DIVLTQSPSSLSASVGDRVTITCRASESVDSYGNSFIHWYQQKPGQPPKLLIYRASNLESGIPARFSGSGSRTDFTLTISSLQPEDFATYYCQQSYEDPWTFGGGTKXEIK
# modifications: Fab constant domains; humanized murine antibody
# B2: 11H08: mouse anti-human DR3 monoclonal antibody, isotype IgG1κ, from hybridoma 11H08; VH SEQ ID NO:7, VL SEQ ID NO:20 (antibody, listed as Mus musculus, V domains shown)
# VH: EVMLVESGGGLVKPGGSLKLSCAASGFTFTNYAMSWVRQTPEKRLEWVATITSGGSYIYYLDSVKGRFTISRDNAKSTLYLQMSSLRSEDTAIYNCARRKDGNYYYAMDYWGQGTSVTVSS
# VL: DIVLTQSPASLAVSLGQRATISCRASESVDSYGNSFIHWYQQKAGQPPKLLIYRASNLESGIPARFSGSGSRTDFTLTINPVEADDVATYYCQQSYEDPWTFGGGTKLEIK
# B3: H1L2-Fab: humanized anti-DR3 Fab, VH H1 (SEQ ID NO:9), VL L2 (SEQ ID NO:22, Leu at Kabat 104) (antibody, V domains shown)
# VH: B2 VH with M3Q, K19R, T40A, E42G, K43Q, A49S, S84N, S88A, I93V, S116T
# VL: B1 VL
# modifications: Fab constant domains; humanized murine antibody
# B4: 11H08-Fab: Fab of 11H08 VH/VL (SEQ ID NOs:7, 20) with human IgG1 CH1 and Cκ; parental anti-DR3 molecule (antibody, listed as Mus musculus, V domains shown)
# VH: B2 VH
# VL: B2 VL
# modifications: human IgG1 CH1 and Ckappa constant domains
# notes: parental anti-DR3 molecule
# B5: hDR3-Fc: human DR3-Fc fusion protein, known to bind TL1A and inhibit activity (protein)
# chain: QGGTRSPRCDCAGDFHKKIGLFCCRGCPAGHYLKAPCTEPCGNSTCLVCPQDTFLAWENHHNSECARCQACDEQASQVALENCSAVADTRCGCKPGWFVECQVSQCVSSSPFYCQPCLDCGALHRHTRLLCSRRDTDCGTCLPGFYEHGDGCVSCPTSTLGSCPERCAAVCGWRQ
# modifications: left off: a dimerising Fc or GST
# Legend:
# human DR3 [1] = target: T1, human DR3; assay: TF-1 assay (cell viability, cycloheximide, Cell Titer Glo); type: cell-based; set-up: endogenous in cells; host or cells: TF-1 (premyeloid); settings: TF-1 cells, 10 ng/mL hTL1A and cycloheximide; luminescence
# Description: Treatment of TF-1 cells with human TL1A (the ligand for DR3) in the presence of cycloheximide induces cell death (Migone et al., Immunity 16:479-492 (2002)). A TF-1 assay was used to test the ability of 11H08 to block TL1A activity through the DR3 receptor.
# A TF-1 assay can be performed according to methods known in the art. Briefly, premyeloid TF-1 cells are maintained in 10% FBS (fetal bovine serum), 1×RPMI, 1% Pen-Strep with Glutamine, and 2 ng/mL GM-CSF. The cells are grown until log phase, washed three times in PBS, and incubated with the antibodies to be tested for one hour. After this pre-incubation, between 50,000 and 100,000 cells are seeded per well. The cells are combined with 10 ng/mL hTL1A, 10 μg/mL cycloheximide (Sigma-Aldrich, cat #C1988-1G) and the antibodies to be tested and then incubated for 24 to 72 hours. Cell viability is measured using Cell Titer Glo (Promega, cat #G7570). This assay allows cell viability to be determined by measuring the luminescent signal which is proportional to the amount of ATP present. The ATP is indicative of metabolically active cells and higher luminescence signals reflect greater cell viability.
# In order to test the effect of 11H08-scFv-HSA and the humanized anti-DR3-Fab molecules, a TF-1 assay was used to test the ability of these various anti-DR3 fragments to block TL1A induced activity. The TF-1 assay was performed as indicated above in Example 5, but where the various anti-DR3 fragments were used instead of the whole 11H08 immunoglobulin as described.
# primary human T cells = assay: Primary human T cell assay (proliferation, cytokine secretion); type: cell-based
# Description: A primary human T cell assay can be performed using standard methods known in the art. Briefly, primary human T cells are incubated with 100 ng/mL human TL1A ligand and appropriate concentrations of the antibody molecules to be tested for 72 hours. This incubation is followed by a 24 hour incubation with 5 ng/mL IL-2. Proliferation is measured by a standard luminescent protocol. The amount of cytokine secreted is determined by standard methods in the art.
# A primary human T cell assay was performed to determine the effect of the 11H08-Fab-HSA on proliferation and the secretion of IFNγ or GM-CSF from cells treated with TL1A. […] 3 μg/mL 11H08-Fab-HSA, 3 μg/mL hDR3-Fc, or 3 μg/mL full length 11H08 immunoglobulin were used in this experiment. Results were compared to a set of cells treated only with media and cells that were treated only with 100 ng/mL TL1A, as indicated.
# human DR3 [2] = target: T1, human DR3; assay: TF-1 assay (cell viability, cycloheximide, Cell Titer Glo); type: cell-based; set-up: endogenous in cells; host or cells: TF-1 (premyeloid); settings: TF-1 cells with cycloheximide; luminescence
# human DR3 [3] = target: T1, human DR3; assay: TL1A binding inhibition assay (flow cytometry); set-up: expressed in transfected cells; host or cells: HEK293F (transient); settings: HEK293F cells transiently expressing human DR3, 1 μg/mL human TL1A
# Description: The anti-DR3 monoclonal antibody 11H08 was assayed for its ability to inhibit human TL1A binding to human DR3 using techniques known to those skilled in the art. Briefly, HEK293F cells transiently expressing human DR3 were incubated with 1 μg/mL of human TL1A in the presence of either an unrelated antibody (mIgG1) as an isotype control that was known not to bind TL1A or DR3, or an anti-DR3 monoclonal antibody (11H08), for 20 minutes at room temperature. Binding was detected using an anti-TL1A-biotin polyclonal antibody followed by Streptavidin PE. The ability of the anti-DR3 monoclonal antibody to inhibit binding of TL1A to DR3 was measured by flow cytometry.
# [4] = 100 ng/mL hTL1A, 3 μg/mL test molecule
molecule,measurement,setting,value
B1,inhibition of TL1A-induced apoptosis (TF-1 cell viability),human DR3 [1],inhibited TL1A-induced apoptosis in TF-1 cells
B2,proliferation and cytokine secretion (agonist activity),primary human T cells; 3 μg/mL antibody alone,induced TL1A-like activity
same,"TF-1 cell viability / apoptosis induction (agonist, TL1A-like activity)",human DR3 [2],"activated the DR3 receptor, thereby inducing TL1A-like activity"
same,inhibition of human TL1A binding to human DR3,human DR3 [3],inhibited human TL1A binding to the human DR3 receptor
B3,inhibition of TL1A-induced apoptosis (TF-1 cell viability),human DR3 [1],inhibited TL1A-induced apoptosis in TF-1 cells
B4,inhibition of TL1A-induced apoptosis (TF-1 cell viability),human DR3 [1],prevented TL1A-induced apoptosis; also recorded: inhibited TL1A-induced apoptosis in TF-1 cells
B5,TL1A-induced cell proliferation,primary human T cells; [4],inhibited
same,"TL1A-induced cytokine secretion (IFNγ, GM-CSF)",primary human T cells; [4],inhibited
